Substitutions are numbered along the chain they refer to.
T1: mouse CD276 protein (mouse, UniProt Q8VE98 29-316)
T1 construct: whole, on cells; also called mCD276; CHO-S-mCD276
T1 sequence (looked up): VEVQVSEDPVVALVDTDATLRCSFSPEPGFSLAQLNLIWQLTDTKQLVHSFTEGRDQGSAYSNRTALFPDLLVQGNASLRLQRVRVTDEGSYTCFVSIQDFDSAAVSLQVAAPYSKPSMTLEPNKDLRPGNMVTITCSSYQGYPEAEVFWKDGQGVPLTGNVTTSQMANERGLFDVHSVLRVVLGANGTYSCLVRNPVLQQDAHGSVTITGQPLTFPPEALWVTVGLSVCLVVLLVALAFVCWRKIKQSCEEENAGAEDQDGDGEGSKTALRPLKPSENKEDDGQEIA

T2: human CD276 protein (human, UniProt Q5ZPR3 29-534)
T2 construct: whole, on cells; for SKOV3 and the other cancer lines the protein is the cells' own; also called B7-H3; B7H3
T2 sequence (looked up): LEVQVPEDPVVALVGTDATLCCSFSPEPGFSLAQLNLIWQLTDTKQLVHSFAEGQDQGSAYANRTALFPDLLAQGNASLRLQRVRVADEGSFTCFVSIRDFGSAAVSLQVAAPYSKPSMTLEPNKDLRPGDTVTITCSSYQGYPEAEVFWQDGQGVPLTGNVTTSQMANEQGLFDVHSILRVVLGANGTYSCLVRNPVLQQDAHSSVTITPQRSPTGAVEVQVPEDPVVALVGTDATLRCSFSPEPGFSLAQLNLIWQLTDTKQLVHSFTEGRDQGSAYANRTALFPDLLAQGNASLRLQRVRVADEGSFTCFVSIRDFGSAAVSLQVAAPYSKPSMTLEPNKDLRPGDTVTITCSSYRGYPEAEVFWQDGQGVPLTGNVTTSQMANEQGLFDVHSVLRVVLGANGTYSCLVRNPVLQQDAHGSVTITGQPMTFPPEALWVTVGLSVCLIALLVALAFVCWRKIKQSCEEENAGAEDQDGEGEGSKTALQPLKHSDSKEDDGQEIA

B1: 4-D5-B9-B11 (antibody, V domains shown)
VH: EIGGLVKPGGSLKFSCAASGFTFSSYAMSWVRQTPEKRLEWVATISGGGIYYPDSVKGRFTISRDNAKNTLYLQMSSLRSEDTAMYYCARQGSKGWDAMDYWGQGTSVTVSS
VL: QIVLTQSPAIMSASPGEKVTMTCRASSSVSFMHWYQQKSGTSPKRWIYETSKLASGVPDRFSGSGSGTSYSLTISSMEAEDAATYYCQQWSSNPLTFGAGTKLELK
notes: mouse monoclonal antibody (hybridoma)
B2: 6-H11-G5-D8 (antibody, V domains shown)
VH: EVQLQESGPELVKPGTSVKLSCKASGYTFTSYDINWVRQRPEQGLEWIGWIFPGNGDTYYNEKFKGKATLTSDKSSSTAYMQLSRLTSEDSAVYFCARDLRLGTFDYWGQGTTLTVSS
VL: B1 VL with A9E, R24S, F31Y, M32I, E49D, D59A, S75R, W90G, L95R, A99G
notes: as for B1
B3: 14-E7-G9-D4 (antibody, V domains shown)
VH: EVQLQQSGPELVKPGASVKMSCKASGYTFTNYIMHWVKQKPGQGLEWIGYINPYNDGIKYNEKFKGKATLTSDKSSSTAYMELSSLTSEDSAVYYCTRWGNYVFYYTMDYWGQGTSVTVSS
VL: QIVLSQSPAILSASPGEKVTMTCRASSSVSYMHWYQQKPGSSPKPWIYATSNLASGVPARFSGSGSGTSYSLTISRMEAEDAATYYCQQWSGNPPLTFGAGTKLELK
notes: as for B1
B4: 7-E1-F8-F6 (antibody, V domains shown)
VH: QVQLQQSGPELVKPGASVQMSCKASGYTFTDYVISWVNQRTGQGLEWIGEIYPRSGNTYYNEKFKGKATLTADKSSNTAYMQLSSLTSEDSAVYFCARFDIAYSFDYWGQGTTLTVSS
VL: DVVMTQTPLSLPVSLGDQASISCRSTQSLVHSNGVTYLHWYLQKPGQSPKLLIYKVSNRFSGVPDRFSGSGSGTDFTLKISRVEAEDLGVYFCSQGTHVPWTFGGGTKLEIK
notes: as for B1
B5: 3-G7-D8-D3 (antibody, V domains shown)
VH: QVQLQQSGAELARPGTSVKLSCKASGYTFTTYWIQWVKQRPGQGLEWIGAIYPGDGDTRYTQKFKGKATLTADKSSSTAYMQLSTLASEDSAVYYCARPYDGYYIDYPMDSWGQGTSVTVSS
VL: QIVLTQSPAIMSASPGEKVTMTCSASSRINYMHWYQQKPGTSPIIWIYDTSKLASGVPARFSGSGSGTSYSLTISSMEAEDAATYYCHQRSSYPFTFGSGTKLEIK
notes: as for B1
B6: 13-A8-C4-G1 (antibody, V domains shown)
VH: QVQLQQPGAELVKPGASMKLSCKASGYIFTSNWMHWVKQRPGQGLEWIGMIHPNSGTTSYNEKFKNKAKLTVDKSSSTAYVQLSSLTSEDSAVYYCAGPTTTRRFYPMDYWGQGTSVTVSS
VL: QAVVTQESALTTSPGETVTLTCRSSTGAVTTSNYANWVQEKPDHLFTGLIGGTNNRAPGVPARFSGSLIGDKAALTITGAQTEDEAIYFCALWYSNHFIFGSGTKVTVL
notes: as for B1
B7: 15-C8-B5-G7 (antibody, V domains shown)
VH: QVQLQQPGAELVKPGASVKLSCKASDYTFTSHWMHWVKQRPGQGLEWIGMIHPNSGTTHYNENFKNKATLTVDNSSSTAYMQLSSLTSEDSAVYYCAWGSSNSYFYAMAYWGQGTSVTVSS
VL: B6 VL with D43A, Y94F, F98L, I99V, S102G, V106L
notes: as for B1
B8: 6-F3-G2-G1 (antibody, V domains shown)
VH: QVQLQQPGAELVKPGASVKLSCKASDYTFTNYWMHWVKQRPGQGLEWIGMIHPNSGTTSYNEKFKNKATLTVDTSSATTYMHLSSLTSEDSAVYYCASHYGNSYSAMDYWGQGTSVTVSS
VL: B6 VL with E16G, T19I, N54S, A62V, E85D, I87M, N96T, F98Y, I99V, S102G
notes: as for B1

target: T1, mouse CD276 protein; assay: FACS on CHO-S-mCD276 cells
Procedure: (§1) Screening & Expansion—The subcloning plates were screened by protein or cell-based Elisa, and the subclones with good binding ability were expanded to 24-wells for confirmation tests. The specificity and cross-reactivity of these subclones were confirmed with FACS analysis. Briefly, parental CHO-S cells, CHO-S-hCD276, CHO-S cell line stably over-expressing Macaca fascicularis CD276, CHO-K1 S, cell line stably over-expressing mouse CD276 were incubated with antibodies produced by each subclone respectively. Fluorescent dye-conjugated secondary antibody was used to detect the binding of the primary antibody with the cells. Median fluorescence intensity was measured by FACS analysis.

FACS MFI	Binder
2100	B1
1360	B2
1300	B3
1310	B4
1290	B5
6200	B6
5730	B7
6980	B8

target: T3, Macaca fascicularis CD276 (Macaca fascicularis); assay: FACS on CHO-S-cynoCD276 cells
T3 construct: whole, on cells; also called cynomolgus monkey CD276; cynoCD276
Procedure: as §1

FACS MFI	Binder
148000	B1
30400	B2
61800	B3
5590	B4
6420	B5
95800	B6
43000	B7
114000	B8

target: T2, human CD276 protein; assay: FACS on CHO-S-hCD276 cells
Procedure: as §1

FACS MFI	Binder
145000	B1
113000	B2
78100	B3
6990	B4
82400	B5
54100	B6
36600	B7
37400	B8

— patent US20240400689A1 (ANTENGENE BIOLOGICS, published 2024)
